Data: doi:10.1101/2024.08.22.609182

Target: AIFM1 OM (obligate monomeric AIFM1 variant, triple mutant in the dimerisation interface) (human) (UniProt O95831)
Experiment: mass photometry

Sequence of AIFM1 OM (obligate monomeric AIFM1 variant, triple mutant in the dimerisation interface) (human) (O95831 102-613, change not shown): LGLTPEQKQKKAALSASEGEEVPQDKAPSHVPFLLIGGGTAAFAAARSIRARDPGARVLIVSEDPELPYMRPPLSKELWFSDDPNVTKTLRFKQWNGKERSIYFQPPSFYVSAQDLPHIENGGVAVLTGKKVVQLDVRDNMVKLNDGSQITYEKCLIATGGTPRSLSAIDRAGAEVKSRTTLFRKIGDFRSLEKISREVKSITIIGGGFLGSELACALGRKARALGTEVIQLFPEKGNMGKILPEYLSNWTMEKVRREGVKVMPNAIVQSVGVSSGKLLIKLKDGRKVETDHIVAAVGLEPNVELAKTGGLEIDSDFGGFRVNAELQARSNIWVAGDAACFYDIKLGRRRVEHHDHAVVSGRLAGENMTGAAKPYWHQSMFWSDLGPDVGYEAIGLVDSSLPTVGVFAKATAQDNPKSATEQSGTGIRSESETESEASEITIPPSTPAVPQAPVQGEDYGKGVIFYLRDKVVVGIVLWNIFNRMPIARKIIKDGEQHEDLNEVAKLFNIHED

Substance: adenylate kinase 2 (AK2), recombinant human (from UniProt P54819 1-239) (enzyme)
- stoichiometry N (AK2 per AIFM1 (printed as 1:1)): 1
